Like-named read-outs stand apart in the source and are kept apart here. One block for each binder: values may come before it.
How the values were obtained:
[1] = biological target: T1, recombinant soluble (ΔGPI) Fc-tagged RECK (sRECK-Fc) (human, UniProt O95980 23-942); assay: pull-down
T1 sequence (looked up): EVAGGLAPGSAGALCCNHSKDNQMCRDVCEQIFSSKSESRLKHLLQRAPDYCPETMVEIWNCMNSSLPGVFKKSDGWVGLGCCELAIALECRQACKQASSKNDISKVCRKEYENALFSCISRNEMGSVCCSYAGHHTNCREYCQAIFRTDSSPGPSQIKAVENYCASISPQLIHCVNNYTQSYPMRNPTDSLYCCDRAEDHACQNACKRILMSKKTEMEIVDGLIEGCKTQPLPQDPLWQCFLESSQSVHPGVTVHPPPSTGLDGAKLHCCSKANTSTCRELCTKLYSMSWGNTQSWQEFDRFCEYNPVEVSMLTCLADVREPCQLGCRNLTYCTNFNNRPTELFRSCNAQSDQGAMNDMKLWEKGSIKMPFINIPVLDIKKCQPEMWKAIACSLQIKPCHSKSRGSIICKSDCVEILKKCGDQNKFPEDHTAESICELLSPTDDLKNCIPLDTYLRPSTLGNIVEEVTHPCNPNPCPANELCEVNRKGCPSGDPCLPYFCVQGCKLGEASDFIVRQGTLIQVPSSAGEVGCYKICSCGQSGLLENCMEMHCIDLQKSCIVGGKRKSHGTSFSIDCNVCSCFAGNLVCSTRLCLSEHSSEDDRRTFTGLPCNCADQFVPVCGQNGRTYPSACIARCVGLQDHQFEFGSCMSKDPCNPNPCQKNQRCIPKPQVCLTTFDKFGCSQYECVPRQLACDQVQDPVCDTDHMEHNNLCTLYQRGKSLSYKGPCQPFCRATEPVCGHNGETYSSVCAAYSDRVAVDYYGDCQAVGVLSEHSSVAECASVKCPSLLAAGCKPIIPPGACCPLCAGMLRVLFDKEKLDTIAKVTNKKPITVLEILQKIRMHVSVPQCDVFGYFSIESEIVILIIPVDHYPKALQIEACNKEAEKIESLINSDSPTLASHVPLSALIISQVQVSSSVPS

[2] = biological target: T2, C-terminally His-tagged soluble RECK (sRECK-His) (human, UniProt O95980 23-942); assay: cross-linking
T2 sequence (looked up): T1 sequence (looked up)

[3] = biological target: T1, recombinant soluble (ΔGPI) Fc-tagged …; assay: pull-down; remark: listed apart in the source

binding result [1]: binds
B1: sGPR124 ΔHRM (Δaa 349 - 426) (domain or fragment, human)
chain: APGCPLSIRSCKCSGERPKGLSGGVPGPARRRVVCSGGDLPEPPEPGLLPNGTVTLLLSNNKITGLRNGSFLGLSLLEKLDLRNNIISTVQPGAFLGLGELKRLDLSNNRIGCLTSETFQGLPRLLRLNISGNIFSSLQPGVFDELPALKVVDLGTEFLTCDCHLRWLLPWAQNRSLQLSEHTLCAYPSALHAQALGSLQEAQLCCEGALELHTHHLIPSLRQVVFQGDRLPFQCSASYLGNDTRIRWYHNRAPVEGDEQAGILLAESLIHDCTFITSELTLSHIGVWASGEWECTVSMAQGNASKKVEIVVLETLYTFVLMPINASNALTLAHQLRVYTAEAASFSDMMDVVYVAQMIQKFLGYVDQIKELVEVMVDMASNLMLVDEHLLWLAQREDKACSRIVGALERIGGAALSPHAQHISVNARNVALEAYLIKPHSYVGLTCTAFQRREGGVPGTRPGSPGQNPPPEPEPPADQQLRFRCTTGRPNVSLSSFHIKNSVALASIQLPPSLFSSLPAALAPPVPPDCTLQLLVFRNGRLFHSHSNTSRPGAAGPGKRRGVATPVIFAGTSGCGVGNLTEPVAVSLRHWAEGAEPVAAWWSQEGPGEAGGWTSEGCQLRSSQPNVSALHCQHLGNVAVLMELDGGGS

stoichiometry N [2]: 1
B2: WNT7A (co-expressed with sRECK-His in Expi293F cells) (ligand, human, UniProt O00755 32-349, looked up)
chain: LGASIICNKIPGLAPRQRAICQSRPDAIIVIGEGSQMGLDECQFQFRNGRWNCSALGERTVFGKELKVGSREAAFTYAIIAAGVAHAITAACTQGNLSDCGCDKEKQGQYHRDEGWKWGGCSADIRYGIGFAKVFVDAREIKQNARTLMNLHNNEAGRKILEENMKLECKCHGVSGSCTTKTCWTTLPQFRELGYVLKDKYNEAVHVEPVRASRNKRPTFLKIKKPLSYRKPMDTDLVYIEKSPNYCEEDPVTGSVGTQGRACNKTAPQASGCDLMCCGRGYNTHQYARVWQCNCKFHWCCYVKCNTCSERTEMYTCK

binding result [3]: binds
B3: recombinant soluble GPR124 ECD (sGPR124), C-terminally His-tagged (domain or fragment)
chain: APGCPLSIRSCKCSGERPKGLSGGVPGPARRRVVCSGGDLPEPPEPGLLPNGTVTLLLSNNKITGLRNGSFLGLSLLEKLDLRNNIISTVQPGAFLGLGELKRLDLSNNRIGCLTSETFQGLPRLLRLNISGNIFSSLQPGVFDELPALKVVDLGTEFLTCDCHLRWLLPWAQNRSLQLSEHTLCAYPSALHAQALGSLQEAQLCCEGALELHTHHLIPSLRQVVFQGDRLPFQCSASYLGNDTRIRWYHNRAPVEGDEQAGILLAESLIHDCTFITSELTLSHIGVWASGEWECTVSMAQGNASKKVEIVVLETSASYCPAERVANNRGDFRWPRTLAGITAYQSCLQYPFTSVPLGGGAPGTRASRRCDRAGRWEPGDYSHCLYTNDITRVLYTFVLMPINASNALTLAHQLRVYTAEAASFSDMMDVVYVAQMIQKFLGYVDQIKELVEVMVDMASNLMLVDEHLLWLAQREDKACSRIVGALERIGGAALSPHAQHISVNARNVALEAYLIKPHSYVGLTCTAFQRREGGVPGTRPGSPGQNPPPEPEPPADQQLRFRCTTGRPNVSLSSFHIKNSVALASIQLPPSLFSSLPAALAPPVPPDCTLQLLVFRNGRLFHSHSNTSRPGAAGPGKRRGVATPVIFAGTSGCGVGNLTEPVAVSLRHWAEGAEPVAAWWSQEGPGEAGGWTSEGCQLRSSQPNVSALHCQHLGNVAVLMELDGGGS
